These results are taken from the supplement of paper PMC12855868.

The labels stand for the following.
B1: library; numbered along this chain (parent)
chain: MAAAGGARLLRAASAVLGGPAGRWLHHAGSRAGSSGLLRNRGPGGSAEASRSLSVSARARSSSEDKITVHFINRDGETLTTKGKVGDSLLDVVVENNLDIDGFGACEGTLACSTCHLIFEDHIYEKLDAITDEENDMLDLAYGLTDRSRLGCQICLTKSMDNMTVRVPETVADARQSIDVGKTS

The variants in this data set derive from B1. Nature of the data set: scaled log2 fold change in cell abundance, elesclomol vs control (0 = silent mean, 1 = nonsense mean) (scaled log2 ratio); higher = higher viability under elesclomol (loss of FDX1 cuproptosis function). The note with it: glucose 10 mM. As to the method: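 Deep mutational scan of full-length human FDX1: a pooled saturation-mutagenesis ORF library (every residue 2-184 mutated to all 19 amino acids plus stop, and silent codons where available) was expressed by lentivirus in FDX1-knockout ABC1 (14 days) or HEK293T (11 days) cells grown with elesclomol (ES) or DMSO control. Variant abundance came from ORF sequencing. The log2 fold change (ES vs control, mean of duplicates) was centred on the silent-variant mean (0) and scaled to the nonsense-variant mean (1). Higher values mean greater viability under ES, i.e. loss of FDX1 function in cuproptosis.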

The mark [1] stands for this setting: with ABC1 FDX1 KO, elesclomol 5 nM, 14 days.
The mark [2] stands for this setting: with HEK293T FDX1 KO, elesclomol 40 nM, 11 days.
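Also: variant abundance is its share of total variant reads in each endpoint sample, from next-generation sequencing of the integrated ORF PCR-amplified out of genomic DNA.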

With MAAAGGARLLRAASAVLGGPAGRWLHHAGSRAGSSGLLRNRGPGGSAEASRSLSVSARARSSSEDKITIHFINRDGETLTTKGKVGDSLLDVVVENNLDIDGFGACEGTLACSTCHLIFEDHIYEKLDAITDEENDMLDLAYGLTDRSRLGCQICLTKSMDNMTVRVPETVADARQSIDVGKTS [V69I], the “scaled log2 fold change” value runs as follows: under setting [1], -0.0537; under setting [2], -0.536.
For the variant MAAAGGARLLRAASAVLGGPAGRWLHHAGSRAGSSGLLRNRGPGGSAEASRSLSVSARARSSSEDKITEHFINRDGETLTTKGKVGDSLLDVVVENNLDIDGFGACEGTLACSTCHLIFEDHIYEKLDAITDEENDMLDLAYGLTDRSRLGCQICLTKSMDNMTVRVPETVADARQSIDVGKTS [V69E], the “scaled log2 fold change” value turned out to be 1.06 under setting [1] and 1.55 under setting [2].
On to MAAAGGARLLRAASAVLGGPAGRWLHHAGSRAGSSGLLRNRGPGGSAEASRSLSVSARARSSSEDKITLHFINRDGETLTTKGKVGDSLLDVVVENNLDIDGFGACEGTLACSTCHLIFEDHIYEKLDAITDEENDMLDLAYGLTDRSRLGCQICLTKSMDNMTVRVPETVADARQSIDVGKTS [V69L], for which the “scaled log2 fold change” value under setting [1] was -0.537 and the “scaled log2 fold change” value under setting [2] is -0.407.
Taken in the same sequence, the figures for MAAAGGARLLRAASAVLGGPAGRWLHHAGSRAGSSGLLRNRGPGGSAEASRSLSVSARARSSSEDKITDHFINRDGETLTTKGKVGDSLLDVVVENNLDIDGFGACEGTLACSTCHLIFEDHIYEKLDAITDEENDMLDLAYGLTDRSRLGCQICLTKSMDNMTVRVPETVADARQSIDVGKTS [V69D] were 1.04 and 1.26.
Taken in the same sequence, the figures for MAAAGGARLLRAASAVLGGPAGRWLHHAGSRAGSSGLLRNRGPGGSAEASRSLSVSARARSSSEDKITCHFINRDGETLTTKGKVGDSLLDVVVENNLDIDGFGACEGTLACSTCHLIFEDHIYEKLDAITDEENDMLDLAYGLTDRSRLGCQICLTKSMDNMTVRVPETVADARQSIDVGKTS [V69C] were 0.189 and 0.782.
Taken in the same sequence, the figures for MAAAGGARLLRAASAVLGGPAGRWLHHAGSRAGSSGLLRNRGPGGSAEASRSLSVSARARSSSEDKITNHFINRDGETLTTKGKVGDSLLDVVVENNLDIDGFGACEGTLACSTCHLIFEDHIYEKLDAITDEENDMLDLAYGLTDRSRLGCQICLTKSMDNMTVRVPETVADARQSIDVGKTS [V69N] were 1.01 and 0.921.
Consider MAAAGGARLLRAASAVLGGPAGRWLHHAGSRAGSSGLLRNRGPGGSAEASRSLSVSARARSSSEDKITFHFINRDGETLTTKGKVGDSLLDVVVENNLDIDGFGACEGTLACSTCHLIFEDHIYEKLDAITDEENDMLDLAYGLTDRSRLGCQICLTKSMDNMTVRVPETVADARQSIDVGKTS [V69F], for which the “scaled log2 fold change” value is -0.809 under setting [1] and -0.24 under setting [2].
On to MAAAGGARLLRAASAVLGGPAGRWLHHAGSRAGSSGLLRNRGPGGSAEASRSLSVSARARSSSEDKITHHFINRDGETLTTKGKVGDSLLDVVVENNLDIDGFGACEGTLACSTCHLIFEDHIYEKLDAITDEENDMLDLAYGLTDRSRLGCQICLTKSMDNMTVRVPETVADARQSIDVGKTS [V69H], for which the “scaled log2 fold change” value is, setting by setting: under setting [1], 1.16; under setting [2], 1.1.
For MAAAGGARLLRAASAVLGGPAGRWLHHAGSRAGSSGLLRNRGPGGSAEASRSLSVSARARSSSEDKITQHFINRDGETLTTKGKVGDSLLDVVVENNLDIDGFGACEGTLACSTCHLIFEDHIYEKLDAITDEENDMLDLAYGLTDRSRLGCQICLTKSMDNMTVRVPETVADARQSIDVGKTS [V69Q], in that order: 1.14 and 0.294.
For MAAAGGARLLRAASAVLGGPAGRWLHHAGSRAGSSGLLRNRGPGGSAEASRSLSVSARARSSSEDKITRHFINRDGETLTTKGKVGDSLLDVVVENNLDIDGFGACEGTLACSTCHLIFEDHIYEKLDAITDEENDMLDLAYGLTDRSRLGCQICLTKSMDNMTVRVPETVADARQSIDVGKTS [V69R], the “scaled log2 fold change” value is, setting by setting: under setting [1], 1.13; under setting [2], 0.458.
Consider MAAAGGARLLRAASAVLGGPAGRWLHHAGSRAGSSGLLRNRGPGGSAEASRSLSVSARARSSSEDKITPHFINRDGETLTTKGKVGDSLLDVVVENNLDIDGFGACEGTLACSTCHLIFEDHIYEKLDAITDEENDMLDLAYGLTDRSRLGCQICLTKSMDNMTVRVPETVADARQSIDVGKTS [V69P], for which the “scaled log2 fold change” value is 1.29 under setting [1] and 0.484 under setting [2].
For MAAAGGARLLRAASAVLGGPAGRWLHHAGSRAGSSGLLRNRGPGGSAEASRSLSVSARARSSSEDKITAHFINRDGETLTTKGKVGDSLLDVVVENNLDIDGFGACEGTLACSTCHLIFEDHIYEKLDAITDEENDMLDLAYGLTDRSRLGCQICLTKSMDNMTVRVPETVADARQSIDVGKTS [V69A], the “scaled log2 fold change” value under setting [1] was determined as 0.0154 and the “scaled log2 fold change” value under setting [2] was 0.807.
For MAAAGGARLLRAASAVLGGPAGRWLHHAGSRAGSSGLLRNRGPGGSAEASRSLSVSARARSSSEDKITGHFINRDGETLTTKGKVGDSLLDVVVENNLDIDGFGACEGTLACSTCHLIFEDHIYEKLDAITDEENDMLDLAYGLTDRSRLGCQICLTKSMDNMTVRVPETVADARQSIDVGKTS [V69G], the “scaled log2 fold change” value runs as follows: under setting [1], 1.19; under setting [2], 1.06.
Regarding MAAAGGARLLRAASAVLGGPAGRWLHHAGSRAGSSGLLRNRGPGGSAEASRSLSVSARARSSSEDKITMHFINRDGETLTTKGKVGDSLLDVVVENNLDIDGFGACEGTLACSTCHLIFEDHIYEKLDAITDEENDMLDLAYGLTDRSRLGCQICLTKSMDNMTVRVPETVADARQSIDVGKTS [V69M], the “scaled log2 fold change” value is, setting by setting: under setting [1], 0.273; under setting [2], -0.0634.
For MAAAGGARLLRAASAVLGGPAGRWLHHAGSRAGSSGLLRNRGPGGSAEASRSLSVSARARSSSEDKITKHFINRDGETLTTKGKVGDSLLDVVVENNLDIDGFGACEGTLACSTCHLIFEDHIYEKLDAITDEENDMLDLAYGLTDRSRLGCQICLTKSMDNMTVRVPETVADARQSIDVGKTS [V69K], the “scaled log2 fold change” value turned out to be 1.22 under setting [1] and 1.85 under setting [2].
Taken in the same sequence, the figures for MAAAGGARLLRAASAVLGGPAGRWLHHAGSRAGSSGLLRNRGPGGSAEASRSLSVSARARSSSEDKIYVHFINRDGETLTTKGKVGDSLLDVVVENNLDIDGFGACEGTLACSTCHLIFEDHIYEKLDAITDEENDMLDLAYGLTDRSRLGCQICLTKSMDNMTVRVPETVADARQSIDVGKTS [T68Y] were 0.308 and 0.0848.
